Results taken from patent publication US20150307863A1.

Target: type IV collagen
Experiment: cell-based or functional assay

Row | median NOD (numbers of disruption), saphenous vein bleeding model in hemophilia B mice 7 days after injection [disruptions] | Substance
1 | 8 | Factor IX K5A variant (from UniProt P00740 47-461) (enzyme)
2 | 19 | Factor IX K5R variant (from UniProt P00740 47-461) (enzyme)
3 | 14 | wild type Factor IX (human FIX) (from UniProt P00740 47-461) (enzyme)
